Positions count from the first letter of the chain named.
T1: hTIGIT-hFc (human, UniProt Q495A1 22-141)
T1 construct: also called antigen protein hTIGIT-hFc; human TIGIT recombinant protein carrying a human Fc tag; not shown: human Fc tag
T1 sequence (looked up): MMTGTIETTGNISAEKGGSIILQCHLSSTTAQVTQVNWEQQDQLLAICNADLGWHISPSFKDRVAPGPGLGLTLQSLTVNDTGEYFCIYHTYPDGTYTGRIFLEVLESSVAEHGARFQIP

T2: full-length human TIGIT on cells (human, UniProt Q495A1 22-244)
T2 construct: whole, on cells; The same protein is used for CHO-hTIGIT, PBMC and NK92-hTIGIT; the cells are named under assay; also called CHO-hTIGIT; hTIGIT
T2 sequence (looked up): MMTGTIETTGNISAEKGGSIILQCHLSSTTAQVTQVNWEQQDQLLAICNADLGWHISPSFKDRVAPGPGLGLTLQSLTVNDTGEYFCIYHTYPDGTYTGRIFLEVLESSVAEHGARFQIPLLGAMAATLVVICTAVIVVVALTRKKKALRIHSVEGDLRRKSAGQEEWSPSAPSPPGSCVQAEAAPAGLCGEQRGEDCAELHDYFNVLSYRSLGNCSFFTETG

B1: 3Tigit-12 mouse monoclonal antibody (antibody, V domains shown)
VH: QVQLQQSGAELVRPGTSVKMSCKAAGYTFTNYWIGWVKQRPGHGLEWIGDIYPGGGYTNYDEKFKGKATLTADTSSRTAYMQLSSLTSEDSAIYHCVNGGYGSTYGYFDVWGAGTTVTVSS
VL: DIVMSQSPSSLPVSVGEKVTMSCKSSQSLLFSSDQKNYLAWYQQKPGQSPKLLIYWASTRESGVPDRLTGSGSGTDFTLTISSVKAEDLAVYYCQQYHKYPFTFGGGTKLEIKR
notes: Mouse monoclonal antibody from hybridoma
B2: Tigit-5 mouse monoclonal antibody (antibody, V domains shown)
VH: QVQLQQPGAELVRPGASVKLSCKASGYSFTSYWMNWVKQRPGQGLEWIGMIRPSDSETRLNQMFKDKATLTVDKSSSTAYMQLSSPTSDDSAVYYCAGIHDYGHGAYWGQGTLVTVSA
VL: DIQMIQSPASLSVSVGETVTITCRASENIYSNLAWYQQKQGKSPQLLVYAASHLPDGVPSRFSGSGSGTQYSLKINSLQSEDFGSYYCQHFWGTPRTFGGGTKLEIKR
notes: as for B1
B3: 3Tigit-16 mouse monoclonal antibody (antibody, V domains shown)
VH: EVQLQQSGPELVKPGASVKMSCKASGFTFTDYFMDWVKQSRGASFEWIGRLNPNNGRTSYNQKFKGKATLTVDKSSSTAYMELNSLTSEDSAVYYCARGDLGRWYFDVWGAGTTVTVSS
VL: QIVLTQSPAIMSASPGEKVTMTCSASSSVSYMHWYQQKSGTSPKRWIYDTSKLASGVPTRFSGSGSGTSYSLTISSMEAEDAASYFCQQWSSNSLTFGAGTKLELKR
notes: as for B1
B4: 3Tigit-29 mouse monoclonal antibody (antibody, V domains shown)
VH: EVQLQQSGPELVKPGASVKISCKASGYTFTDYNMHWVKQSLGKSLEWIGYVNSFNGNTGYSQKFKSKVTLTVDRSSRTAYMDLRSLTSEDSAVFYCARSSRGGFAYWGQGTLVTVSA
VL: B3 VL with T59A, G65V, S84T, F86Y
notes: as for B1

Columns and labels:
[1] = molecular target: T1, hTIGIT-hFc; test: FACS blocking on U2-OS cells; second row of the table; unit from the y axis
Procedure: (§1) U2-OS cells to be detected (human osteosarcoma cells, naturally and highly expressing PVR and CD112 by means of detection) were counted; centrifugated at 300 g for 5 min; resuspended with an FCM buffer; and cell density was adjusted to 4E+06 cell/mL for later use. […] According to an experimental design, in each well, 50 μL of the antigen protein and 50 μL of the cell (the volume of each cell added into a 96-well V-shaped plate being 2E+05 cell/well) were respectively added in the 96-well V-shaped plate; and incubation was performed in dark on ice for 30 min. Centrifugation (300 g/5 min) was performed; supernatant was discarded; 200 μL of the FCM buffer was added for washing once; centrifugation (300 g/5 min) was performed; and the supernatant was discarded. The antibody was added to the 96-well V-shaped plate (in 100 μL/well); and incubation was performed in dark on ice for 30 min. Centrifugation (300 g/5 min) was performed; supernatant was discarded; 200 μL of the FCM buffer was added for washing once; centrifugation (300 g/5 min) was performed; and the supernatant was discarded. Secondary antibodies (APC anti-human IgG Fc, 1:500 dilution) were added to the 96-well V-shaped plate (in 100 μL/well); and incubation was performed in dark on ice for 30 min. Centrifugation (300 g/5 min) was performed; supernatant was discarded; 200 μL of the FCM buffer was added for washing once; centrifugation (300 g/5 min) was performed; and the supernatant was discarded. 100 μL of the 1×PBS was added for resuspending, and on-machine detection was performed.

[2] = molecular target: T1, hTIGIT-hFc; test: FACS blocking: hTIGIT-hFc bound on CHO-hCD112 cells, then antibody, APC anti-human IgG Fc; blocked partner CD112; unit from the x axis Log[µg/mL]
Procedure: as §1, with “The CHO-engineered cell CHO-hCD112” for “U2-OS”, “recombinantly” for “to be detected (human osteosarcoma cells, naturally and highly”, “full-length human” for “PVR and”, “CD112” for “CD112 by means of detection)”

[3] = molecular target: T2, full-length human TIGIT on cells; test: FACS titration on CHO-hTIGIT cells; span of the fitted curve, unit from the y axis
Procedure: The CHO-engineered cells CHO-hTIGIT cells recombinantly expressing full-length human TIGIT to be detected were counted, centrifuged at 300 g for 5 min, resuspended in an FCM buffer and cell density was adjusted to 4E+06 cell/mL for later use. A sample to be detected (including a positive control antibody and a mouse monoclonal antibody) was diluted with the FCM buffer to 20 μg/mL, and then the FCM buffer was used to perform 3× serial dilutions of 12 concentration points; and the isotype control antibody was diluted with the FCM buffer to 20 μg/mL. According to an experimental design, in each well, 50 μL of the antibody and 50 μL of the cell (the amount of each cell added into a 96-well V-shaped plate being 2E+05 cells/well) were respectively added in the 96-well V-shaped plate; and incubation in dark was performed on ice for 30 min. Centrifugation (300 g/5 min) was performed; supernatant was discarded; 200 μL of the FCM buffer was added for washing once; centrifugation (300 g/5 min) was performed; and the supernatant was discarded. […] Centrifugation (300 g/5 min) was performed; supernatant was discarded; 200 μL of the FCM buffer was added once for washing once; centrifugation (300 g/5 min) was performed; and the supernatant was discarded. 100 μL of the 1×PBS was added for resuspending, and on-machine detection was performed.

Binder | Span (row head not given) [1] [MFI-APC] | IC50 [2] [µg/mL] | Span [3] [MFI-PE]
B1 | 555 | 0.191 | –
B2 | – | 0.143 | 21000
B3 | 580 | 0.265 | 34600
B4 | 585 | 0.196 | 30600
